Laboratory results reported in the RNAGym collection of RNA variant scans (doi:10.7554/elife.80360).

B1: Hairpin Ribozyme (parent)
chain: GUCCUCUUUCACGUGCGCGUGAAAGAGAGAAGUGAACCAGAGAAACACACGUUGUGGUAUAUUACCUGGUA

Variants of: B1
Experiment: self-cleavage, relative activity (ratio to wild type); higher = more cleavage; co-transcriptional

Variant	self-cleavage
C12G G57C	0.165
C12G U58A	0.734
C10U U55A	0.213
C10U U55G	0.201
C10U U55C	0.337
A11U G17C	0.566
A11U G25C	0.205
C12A C65A	0.787
C12G C16A	0.84
C12G C16G	0.806
A11C C12U	0.766
A11C C12G	0.903
A11G U62A	0.154
C12G U20C	1.01
A11U C66G	0.0569
C12G A24C	0.613
C12G A24G	0.778
A11G A45G	0.271
A11G A45C	0.124
A11C U14A	0.533
C12G G51U	0.663
C12G G51C	0.753
C12G G51A	0.965
C12G G21C	0.47

Variant	self-cleavage
A11G G69U	0.215
A11G A30G	0.269
A11G A30C	0.146
A11C G57U	0.323
C12A A22G	0.692
A11G G13C	0.567
A11G G13U	0.662
C12G A30U	0.147
C12G A30C	0.0578
C12G A30G	0.247
C12A A41G	0.736
A11U A41C	1.01
A11U A41U	1
A11C A61C	0.24
A11G A43U	0.199
A11G A43G	0.128
A11G A43C	0.0944
C10U G13A	0.662
C12G A59U	0.134
A11C C50G	0.321
A11G A61C	0.14
A11G A47U	0.131
A11G A47G	0.0539
C10U A41G	0.765

Variant	self-cleavage
C10U G68C	0.229
C12G	0.827
C12A	0.805
C12A A43C	0.257
C12A A43G	0.116
A11C A71U	0.747
A11C A71G	0.902
A11C A71C	1.15
A11C A22C	0.803
A11G U52G	0.681
C12G G40A	0.266
A11G C37U	0.357
C10U U53A	0.733
C10U U53G	0.725
A11C C18U	0.94
A11C C18G	0.775
A11U C12G	0.74
A11U A30G	0.0913
A11U A23U	0.728
C10U U60C	0.992
C10G U63G	0.113
A11C A26G	0.645
A11U A45U	0.255
C12G G56U	0.124

Variant	self-cleavage
C12G G56A	0.14
A11C G42U	0.214
A11U A28U	0.494
A11C G19A	0.741
A11G G17A	1.01
A11C A47U	0.251
A11U A36G	0.7
A11C A41G	0.701
A11U G27A	0.406
A11G A24C	0.746
A11U G42A	0.136
C12A C16G	0.671
C12A C16U	0.977
A11G G21C	0.618
A11G A39U	0.495
C12G G69A	0.284
C12G G69U	0.259
A11G U33A	0.0249
C10U A61U	0.246
C10U U20G	0.498
A11U A47U	0.266
A11G A41G	1.01
C12A A47C	0.329
A11G G29C	0.177

Variant	self-cleavage
C10U A43G	0.113
C10U A43C	0.189
A11C G51U	1.13
A11C G51C	0.8
C10U A39C	0.458
C10U U63C	0.102
A11C A30C	0.147
A11C A30U	0.177
A11U U62A	0.148
A11C G40A	0.318
C10U U58C	0.771
C10U U58G	0.557
A11C A43C	0
A11C A43G	0.0792
A11G G25A	0.43
A11C A31U	0.18
A11C A31G	0.437
C12G G34C	1.15
A11G A59G	0.199
A11U G15C	0.85
A11U G15A	0.849
C12A C46G	0.161
C12A G57U	0.172
C12A G57A	0.255

Variant	self-cleavage
C12A C66U	0.418
A11G G51U	0.713
A11G G51A	0.93
A11G A36C	0.508
A11C U55C	0.183
A11C U55A	0.448
C12G G19C	1.24
C12G G19U	0.997
C12G G19A	0.808
C12A U62C	0.0739
C12G G68C	0.144
C12G G68A	0.233
C12G G25C	0.489
A11G C66G	0.173
C12G C65G	0.174
C12G C65U	0.28
C10U A35C	0.871
C12A U52G	0.757
A11C U52A	0.762
C12G G54A	0.543
C12G G17U	0.627
C12A G40A	0.237
A11U A22U	0.501
A11U A22C	0.363

Variant	self-cleavage
C10U G17U	0.665
A11U U58G	0.65
A11U U58A	0.523
A11G G40U	0.149
C12A G54U	0.53
C12A G54C	0.389
A11C A44C	0.0983
A11C A44G	0.197
A11C G17U	0.745
A11C G17C	0.745
C12A G51C	0.78
C12A G51U	0.933
A11G C18G	0.816
C12G A28G	0.889
C12A A23C	0.762
A11C G68U	0.307
C12G U52G	0.718
A11C C16G	0.578
A11C C16A	0.759
C12G G13A	0.851
A11G G19C	0.784
A11U U53G	0.69
A11U U53C	0.975
C12A A35U	0.635

Variant	self-cleavage
A11G G15C	0.859
A11G G54C	0.297
C10U C48G	0.134
C10U C48A	0.104
A11U G21C	0.549
A11U U33A	0.0768
A11C G54A	0.508
A11C C38G	0.0848
A11C A35G	0.837
A11C A35U	0.643
A11G C16A	0.825
A11G C16U	0.902
A11C G56C	0.108
C10U G54U	0.452
C10U G54A	0.561
C10U G69U	0.217
C10U G69A	0.405
C10U A31C	0.135
C12G C38U	0.392
C12A U33G	0.175
C12G A39G	0.29
C12G G27A	0.29
C12G G27U	0.261
C10U U52G	0.564

Variant	self-cleavage
C10U U52C	0.949
C10U A44C	0.135
A11U A59C	0.137
A11U A59U	0.256
C10G U70C	0.93
C10G U70A	0.592
C12A C18A	0.812
A11U C38U	0.47
A11U G56C	0.087
C12A A24U	0.584
A11U A24G	0.813
C10U G57C	0.187
C10U G25C	0.487
C12G A23G	0.853
C12G A23U	0.753
C12G A23C	0.511
A11G A35G	0.764
A11C G13C	0.503
A11C G13U	0.717
C10U A36C	0.662
C10U A36G	0.648
A11C U67A	0.116
A11C U67G	0.168
A11U A49U	0.251

Variant	self-cleavage
A11U A49C	0.24
A11U C46G	0.0538
A11U C46A	0.16
A11G G27A	0.353
A11G G27U	0.248
C10U G21U	0.815
C10U C38G	0.269
C10U C38A	0.157
C10U C38U	0.387
C12A C37A	0.27
C12A C37G	0.259
C12A G34A	1.21
A11C G27U	0.365
A11U C50G	0.258
C12G A49U	0.12
C12A A36C	0.523
A11U U63A	0.22
A11G A28U	0.447
A11G U67C	0.214
A11G A49C	0.124
C12A A45C	0.137
C12A A28U	0.34
A11G U53C	1.02
C12A U70C	0.722

Variant	self-cleavage
C12A U70G	0.673
C10U C50U	0.391
C10U C50A	0.18
C12G A44U	0.147
C12G A44G	0.156
C10G U67G	0.205
C12A U55C	0.208
A11C A24G	0.539
A11U U55A	0.154
C12G A41G	0.573
A11C A39U	0.37
A11G C38A	0.213
A11G C38U	0.432
A11G C38G	0.188
C12G A47C	0.417
A11U G13C	0.737
A11U G13U	0.54
A11U U60G	0.509
A11U U60A	0.708
C12G C46A	0.191
C12G C46G	0.17
C10U A28G	0.822
A11C G25C	0.457
A11C G25A	0.504

Variant	self-cleavage
C10U G32C	0.17
A11U G32A	0.165
C12A U63C	0.2
A11C G32U	0.063
A11C G32A	0.179
A11U U52C	0.891
A11U U52A	0.85
A11C A28C	0.481
C10U G27U	0.225
C10U G27C	0.0988
C10U A47U	0.109
C10U A47G	0.169
C10U A47C	0.257
A11U G51C	0.706
C12G C50A	0.306
C12A G69A	0.289
A11G U14A	0.916
A11G A23U	0.93
A11G A23C	0.596
A11G C65G	0.31
A11U U14G	0.536
A11U U14C	0.964
A11U A31U	0.0898
C12G C37A	0.159

Variant	self-cleavage
A11G U55C	0.105
A11G C46G	0.0993
A11G C46A	0.0804
C12G G32U	0.179
C12A U53C	0.939
C10U G34A	1.04
C10U C18U	0.95
C10U C18A	0.956
C12G G15A	0.881
C10U U62A	0.234
A11G G56A	0.229
A11G G56C	0.128
C12G G42U	0.343
A11U A71G	0.977
C12G A22C	0.518
A11U A39G	0.342
A11G A64G	0.507
A11G A64U	0.111
A11G A64C	0.114
A11U G69A	0.402
A11U A44C	0.216
A11C U60G	0.714
A11C U60A	0.716
C10U A26C	0.687

Variant	self-cleavage
C12A G25A	0.486
C12A G25U	0.559
A11C G21U	0.799
C12G A45C	0.0684
A11C G15U	0.996
C10U C12A	0.574
C12A C48A	0.162
C12A C48G	0.137
A11U G40A	0.242
A11U G40C	0.178
C10U A11C	0.696
C10U A30U	0.12
C12A G19U	0.995
C12A G19A	0.876
C10U A49U	0.0687
A11U G34U	1.36
A11U G54C	0.333
A11G G34U	1.17
A11U A61U	0.247
C12A A64U	0.176
A11U C16U	1.02
A11C U53C	0.681
